Laboratory results as given in US20250101080A1 (BIOSCEPTRE AUST, published 2025).

T1: EXD2_K193A (nf-P2X7) surface fusion protein on HEK293 cells (human, UniProt Q99572 47-332)
T1 sequence: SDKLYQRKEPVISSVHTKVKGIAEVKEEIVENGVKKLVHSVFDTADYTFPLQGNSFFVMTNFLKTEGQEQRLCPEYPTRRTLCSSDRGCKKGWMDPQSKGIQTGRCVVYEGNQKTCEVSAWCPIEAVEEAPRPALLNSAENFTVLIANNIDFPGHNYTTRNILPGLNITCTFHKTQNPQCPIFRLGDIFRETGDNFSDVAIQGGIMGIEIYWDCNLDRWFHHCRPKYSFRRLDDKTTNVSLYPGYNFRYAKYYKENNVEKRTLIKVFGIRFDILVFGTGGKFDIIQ

T2: dysfunctional (non-functional) P2X7 receptor expressed on human cancer cells (human, UniProt Q99572 1-595)
T2 sequence: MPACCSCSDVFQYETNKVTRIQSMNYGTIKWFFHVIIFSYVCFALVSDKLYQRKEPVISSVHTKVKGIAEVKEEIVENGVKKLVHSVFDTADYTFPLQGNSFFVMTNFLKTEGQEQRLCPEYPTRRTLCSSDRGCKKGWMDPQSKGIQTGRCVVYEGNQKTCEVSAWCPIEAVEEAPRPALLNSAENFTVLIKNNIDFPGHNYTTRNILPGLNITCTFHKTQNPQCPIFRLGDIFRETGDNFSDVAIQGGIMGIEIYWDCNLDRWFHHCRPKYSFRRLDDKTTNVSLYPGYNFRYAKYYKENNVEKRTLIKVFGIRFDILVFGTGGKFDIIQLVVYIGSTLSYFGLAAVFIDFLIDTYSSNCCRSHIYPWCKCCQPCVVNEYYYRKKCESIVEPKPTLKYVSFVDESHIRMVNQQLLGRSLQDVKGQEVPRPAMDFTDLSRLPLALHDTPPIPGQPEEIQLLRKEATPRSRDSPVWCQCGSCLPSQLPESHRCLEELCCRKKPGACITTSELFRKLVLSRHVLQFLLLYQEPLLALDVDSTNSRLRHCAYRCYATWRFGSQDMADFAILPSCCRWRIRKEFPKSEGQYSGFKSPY


Key:
[1] = target: T1, EXD2_K193A (nf-P2X7) surface fusion …; experiment: cell-based or functional assay
[2] = target: T2, dysfunctional (non-functional) P2X7 …; experiment: cell-based or functional assay

Binder	fold change in cell killing against empty vector transduced CD8 T cells (CytoTox 96 assay, 4 hours, 1:1 ratio) [1] [fold]	fold change in cell killing against empty vector transduced CD8 T cells (CytoTox 96 assay, 4 hours, 1:1 ratio, MDA-MB-231 cells) [2] [fold]
PEP2-2-1-1 CAR (other) EVQLLESGGGLVQPGGSLRLSCAASGFTFRNHDMGWVRQAPGKGLEWVSAISGSGGSTYYADSVKGRFTISRDNSKNTLYLQMNSLRAEDTAVYYCAEPKPMDTEFDYRSPGTLVTVSSGGGESKYGPPCPSCPAPPVAGPSVFLFPPKPKDTLMISRTPEVTCVVVDVSQEDPEVQFNWYVDGVEVHNAKTKPREEQFNSTYRVVSVLTVLHQDWLNGKEYKCKVSNKGLPSSIEKTISKAKGQPREPQVYTLPPSQEEMTKNQVSLTCLVKGFYPSDIAVEWESNGQPENNYKTTPPVLDSDGSFFLYSRLTVDKSRWQEGNVFSCSVMHEALHNHYTQKSLSLSLGKPFWVLVVVGGVLACYSLLVTVAFIIFWVRSKRSRLLHSDYMNMTPRRPGPTRKHYQPYAPPRDFAAYRSRDQRLPPDAHKPPGGGSFRTPIQEEQADAHSTLAKIRVKFSRSADAPAYQQGQNQLYNELNLGRREEYDVLDKRRGRDPEMGGKPRRKNPQEGLYNELQKDKMAEAYSEIGMKGERRRGKGHDGLYQGLSTATKDTYDALHMQALPPR	~15	~2.5
PEP2-472-2 CAR (other) EVQLLESGGGLVQPGGSLRLSCAASGYTFPMKDMGWVRQAPGKGLEWVSAISGSGGGTYYADSVKGRFTISRDNSKNTLYLQMNSLRAEDTAVYYCAEPKPMDTEFDYRSPGTLVTVLEGGGESKYGPPCPSCPAPPVAGPSVFLFPPKPKDTLMISRTPEVTCVVVDVSQEDPEVQFNWYVDGVEVHNAKTKPREEQFNSTYRVVSVLTVLHQDWLNGKEYKCKVSNKGLPSSIEKTISKAKGQPREPQVYTLPPSQEEMTKNQVSLTCLVKGFYPSDIAVEWESNGQPENNYKTTPPVLDSDGSFFLYSRLTVDKSRWQEGNVFSCSVMHEALHNHYTQKSLSLSLGKPFWVLVVVGGVLACYSLLVTVAFIIFWVRSKRSRLLHSDYMNMTPRRPGPTRKHYQPYAPPRDFAAYRSRDQRLPPDAHKPPGGGSFRTPIQEEQADAHSTLAKIRVKFSRSADAPAYQQGQNQLYNELNLGRREEYDVLDKRRGRDPEMGGKPRRKNPQEGLYNELQKDKMAEAYSEIGMKGERRRGKGHDGLYQGLSTATKDTYDALHMQALPPR	~11	~2.25
